The source of these data is article PMC11764028 (Bioactive Materials, 2025).

This series deals with the molecule itself. The series can be described thus: SEC + native gel or EMSA. On the technique in general: In EMSA bound probe runs differently from free probe, usually more slowly.

B1: dual-functional fusion protein KFS (KALA peptide - human ferritin light chain - SIINFEKL) (other)
chain: WEAKLAKALAKALAKHLAKALAKALKAIRQNYSTDVEAAVNSLVNLYLQASYTYLSLGFYFDRDDVALEGVSHFFRELAEEKREGYERLLKMQNQRGGRALFQDIKKPAEDEWGKTPDAMKAAMALEKKLNQALLDLHALGSARTDPHLCDFLETHFLDEEVKLIKKMGDHLTNLHRGGGGSGGGGSGGGGSSIINFEKL
B1: the stoichiometry N (in general, the number of molecules, sites or subunits per partner or assembly) was 40.
